Source: US10487337B2, “Methods for monocot plant improvement” (Agresearch Limited, priority 2014, dated 2019)

Target: T1, NINJA (Arabidopsis thaliana, UniProt Q9SV55)
T1 construct: expressed in transfected cells; host or cells: yeast strain MaV203
T1 sequence (Q9SV55 with tags, fused parts or gaps): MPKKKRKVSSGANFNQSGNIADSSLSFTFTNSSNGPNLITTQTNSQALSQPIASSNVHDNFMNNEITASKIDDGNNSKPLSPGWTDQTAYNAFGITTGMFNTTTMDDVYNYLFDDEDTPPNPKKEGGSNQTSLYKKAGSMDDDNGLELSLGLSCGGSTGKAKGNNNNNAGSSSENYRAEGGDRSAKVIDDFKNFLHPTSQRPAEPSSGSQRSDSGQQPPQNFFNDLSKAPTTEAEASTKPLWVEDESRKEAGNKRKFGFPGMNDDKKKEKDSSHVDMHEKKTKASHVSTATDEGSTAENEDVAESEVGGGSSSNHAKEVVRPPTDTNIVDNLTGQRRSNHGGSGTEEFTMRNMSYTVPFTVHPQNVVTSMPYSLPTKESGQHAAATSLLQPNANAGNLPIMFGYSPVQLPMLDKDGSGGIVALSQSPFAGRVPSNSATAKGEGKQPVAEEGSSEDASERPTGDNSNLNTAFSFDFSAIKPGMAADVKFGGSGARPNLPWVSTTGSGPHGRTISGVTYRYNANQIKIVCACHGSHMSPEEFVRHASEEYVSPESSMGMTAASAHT
Experiment: Yeast two hybrid (Y2H) interaction with NINJA
Type: binding
Settings: Y2H screening, PPD1 as bait
From the text: The constructs for Y2H and BiFC assays were generated as follows. Arabidopsis DNA sequences encoding the open reading frames for; At4g14713 (PPD1) and truncation and deletion derivatives of PPD1: PPD1; PPD1Δppd (N-terminal truncation of sequences encoding aa 1-61), PPD1Δtify, (internal deletion of sequences encoding aa 154-186), PPD1Δjas*(C-terminal truncation of sequences encoding aa 229-313) (FIG. 5), At4g28910 (NINJA), At1g15750 (TPL), At1g75080 (BZR1), a synthetic PUAS-35S promoter, and sequences encoding GAL4DBD and c-myc fusion proteins were synthesised and sequence verified by GeneArt. Most sequences were supplied as clones in pENTR221 ready for Gateway cloning into yeast and plant expression vectors. The exception, a promoter sequence for in planta transcription activation assays, incorporating 5′ Xho1 and 3′ Nco1 restriction enzyme sites, was supplied cloned in pMA-RQ. Plasmids for the transient LUC reporter assay: A synthetic promoter with 5×UAS GAL4 DNA binding sites upstream of a −105 bp CaMV35S promoter was cloned into the XhoI-NcoI sites within a dual luciferase construct pNWA62, which contains an intron-containing Firefly Luciferase gene (LUC) and 35Spro::Renilla Luciferase (REN) as an internal standard, to construct pAML7. […]

B1: PPD1: PEAPOD 1 protein of Arabidopsis thaliana, SEQ ID NO: 1 (protein, listed as Arabidopsis thaliana)
chain: MDVGVSPAKSILAKPLKLLTEEDISQLTREDCRKFLKDKGMRRPSWNKSQAIQQVLSLKALYEPGDDSGAGIFRKILVSQPVNPPRVTTTLIEPSNELEACGRVSYPEDNGACHRMDSPRSAEFSGGSGHFVSEKDGHKTTISPRSPAETSELVGQMTIFYSGKVNVYDGIPPEKARSIMHFAANPIDLPENGIFASSRMISKLISKEKMMELPQKGLEKANSSRDSGMEGQANRKVSLQRYREKRKDRKFSKAKKCPGVASSSLEMFLNCQPRMKAAYSQNLGCTGSPLHSQSPESQTKSPNLSVDLNSEGI
Q: For B1, which “interaction with NINJA” value is on record?
A: Its value is “direct interactor”.
